According to patent US20160176924A1, “MODIFIED PEPTIDES AS POTENT INHIBITORS OF THE PSD-95/NMDA RECEPTOR INTERACTION” (priority 2008, published 2016):

T1: HIS-PDZ2 protein (PSD-95 PDZ2, residues 155-249, with tag …) (human), P78352
T1 chain: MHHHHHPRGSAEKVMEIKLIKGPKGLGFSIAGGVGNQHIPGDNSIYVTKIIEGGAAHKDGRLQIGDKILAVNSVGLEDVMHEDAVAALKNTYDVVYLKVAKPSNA


Experiments:
[1] = target: T1, HIS-PDZ2 protein (PSD-95 PDZ2, residues …); assay: FP competition, fluorescent NR2B probe
[2] = target: T2, HIS-PDZ1-2 protein (PSD-95 PDZ1-2 tandem, residues 61-249, with tag …) (human), P78352; assay: FP competition, fluorescent NR2B probe
[3] = target: T3, HIS-PDZ1 protein (PSD-95 PDZ1, residues 61-151, with tag …) (human), P78352; assay: FP competition, fluorescent NR2B probe
[4] = target: T1, HIS-PDZ2 protein (PSD-95 PDZ2, residues …); assay: FP competition, fluorescent NR2B probe; truncation series of NR2B peptide (1)
[5] = target: T3, HIS-PDZ1 protein (PSD-95 PDZ1, residues …); assay: as above
[6] = target: T2, HIS-PDZ1-2 protein (PSD-95 PDZ1-2 …); assay: ITC; monomeric IETAV, no linker

Row | Ki [1] | Ki [2] | Ki [3] | fold increase in Ki [4] | fold increase in Ki [5] | Kd [6] | Binder
1 | 28 µM | 28 µM | 56 µM | 6.8 fold | 3.1 fold |  | ESDV (modifications not checked) [ESDV (8)]
2 | 1.7 µM | 2.5 µM |  |  |  | 1.9 µM | IETAV (modifications not checked) [IETAV (82)]
